Experiment: Directed evolution of UGT76G1 round 1, variant lysates, Rebaudioside D to Rebaudioside M conversion and initial rate
Format: biochemical
Experimental: Lysis was performed by addition of Bugbuster® Master mix (Novagen®) to the thawed cells and the lysate was recovered by centrifugation. Activity tests were performed with 100 μL of fresh lysate that was added to a solution of Rebaudioside D (final concentration 0.5 mM), MgCl2 (final concentration 3 mM) and UDP-Glucose (final concentration 2.5 mM) in 50 mM phosphate buffer pH 7.2.
The reaction was allowed to run at 30° C. and samples were taken after 2, 4, 7 and 24 h. to determine conversion and initial rate by HPLC (CAD detection) using the analytical method that was described above for the transformation of Rebaudioside D to Rebaudioside M. The results are depicted in the following table.

B1: UGT76G1var94: UGT76G1 variant containing mutations Q266E_P272A_R334K_G348P_L379G (protein, UniProt Q6VAB4 1-458, looked up, variant Q266E P272A R334K G348P L379G)
UDP-glycosyltransferase 76G1: MENKTETTVRRRRRIILFPVPFQGHINPILQLANVLYSKGFSITIFHTNFNKPKTSNYPHFTFRFILDNDPQDERISNLPTHGPLAGMRIPIINEHGADELRRELELLMLASEEDEEVSCLITDALWYFAQSVADSLNLRRLVLMTSSLFNFHAHVSLPQFDELGYLDPDDKTRLEEQASGFPMLKVKDIKSAYSNWQILKEILGKMIKQTKASSGVIWNSFKELEESELETVIREIPAPSFLIPLPKHLTASSSSLLDHDRTVFEWLDQQAPSSVLYVSFGSTSEVDEKDFLEIARGLVDSKQSFLWVVRPGFVKGSTWVEPLPDGFLGERGKIVKWVPQQEVLAHPAIGAFWTHSGWNSTLESVCEGVPMIFSDFGGDQPLNARYMSDVLKVGVYLENGWERGEIANAIRRVMVDEEGEYIRQNARVLKQKADVSLMKGGSSYESLESLVSYISSL
  activity ranking in first round of directed evolution, Rebaudioside D to Rebaudioside M: most active clone

From patent publication US11542537B2, “High-purity steviol glycosides” (PureCircle Sdn Bhd, priority 2012, dated 2023)
